Test results from patent US20220251236A1 (Boehringer Ingelheim, published 2022).

Experiments:
[1] = molecular target: T1, human DLL3 (endogenous, on SCLC cell lines NCI-H82 and SHP77 and in SCLC tissue) (human, UniProt Q9NYJ7 27-618); assay: flow cytometry on a DLL3-positive SCLC cell line (not named on the sheet), PE-conjugated anti-mouse secondary antibody
T1 construct: whole, on cells; also called SCLC cell lines expressing DLL3
T1 sequence (looked up): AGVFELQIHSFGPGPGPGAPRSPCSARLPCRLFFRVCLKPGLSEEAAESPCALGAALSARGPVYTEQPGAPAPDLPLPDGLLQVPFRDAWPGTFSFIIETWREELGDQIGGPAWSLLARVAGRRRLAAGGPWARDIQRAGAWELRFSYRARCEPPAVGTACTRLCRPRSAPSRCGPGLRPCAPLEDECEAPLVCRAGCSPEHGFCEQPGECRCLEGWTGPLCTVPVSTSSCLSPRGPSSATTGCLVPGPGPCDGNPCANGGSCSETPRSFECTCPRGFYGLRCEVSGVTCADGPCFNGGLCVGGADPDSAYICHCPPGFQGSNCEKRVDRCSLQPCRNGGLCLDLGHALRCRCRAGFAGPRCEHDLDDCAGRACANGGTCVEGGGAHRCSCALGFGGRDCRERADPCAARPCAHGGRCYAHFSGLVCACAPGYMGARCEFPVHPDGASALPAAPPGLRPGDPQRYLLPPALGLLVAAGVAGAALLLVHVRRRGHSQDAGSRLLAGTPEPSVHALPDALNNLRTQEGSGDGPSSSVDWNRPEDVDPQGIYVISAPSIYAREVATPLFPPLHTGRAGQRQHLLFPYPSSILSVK
From the text: Cells (T cells or human SCLC cells) were stained with increasing concentrations of anti-DLL3 antibody with increasing concentrations in FACS buffer (PBS/0.5% BSA/0.05% sodium azide).

Human DLL3-His = molecular target: T2, Human DLL3-His (human, UniProt Q9NYJ7 27-492); assay: sandwich ELISA with ECL readout (MSD): anti-DLL3 antibody coated, recombinant DLL3 protein titrated; the concentration is that of DLL3 protein
T2 construct: also called huDLL3-His; hu DLL3
T2 sequence: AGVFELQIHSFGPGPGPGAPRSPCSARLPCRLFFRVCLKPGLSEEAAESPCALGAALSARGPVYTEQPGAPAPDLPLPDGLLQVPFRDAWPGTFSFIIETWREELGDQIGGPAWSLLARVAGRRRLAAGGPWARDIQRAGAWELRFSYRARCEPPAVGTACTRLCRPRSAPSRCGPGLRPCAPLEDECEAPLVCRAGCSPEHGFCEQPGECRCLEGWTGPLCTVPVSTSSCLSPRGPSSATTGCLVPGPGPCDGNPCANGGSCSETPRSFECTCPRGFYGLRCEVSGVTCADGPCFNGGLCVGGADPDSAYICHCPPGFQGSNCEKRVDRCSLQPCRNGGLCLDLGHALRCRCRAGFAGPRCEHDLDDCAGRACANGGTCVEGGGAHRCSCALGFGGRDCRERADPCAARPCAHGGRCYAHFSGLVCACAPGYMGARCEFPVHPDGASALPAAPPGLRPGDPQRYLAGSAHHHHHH
Method: Binding of antibodies was performed in an ELISA. In brief, anti-DLL3 antibodies were coated at a concentration of […] at 4° C. over night. After washing the plates were blocked with blocking buffer (Gibco, Gibco #043-90309A) for one hour at room temperature, followed by washing and incubation with recombinant DLL3 protein at increasing concentrations. For detection the bound DLL3 protein was incubated with a polyclonal anti-DLL3 antibody (R&D Systems, AB4315) followed by a SULFO-TAG labelled anti-goat antibody (R32AG-1) for one hour. The bound antibody was quantified by using a Read Buffer (MSD) in a Sector imager 6000 (MSD).

[2] = molecular target: T1, human DLL3 (endogenous, on SCLC cell …); assay: flow cytometry titration on SHP77 cells, PE anti-human secondary, x-fold over background
From the text: (§1) Cells (T cells or human SCLC cells) were stained with increasing concentrations of two-step purified DLL3/CD3 binding proteins with increasing concentrations in FACS buffer (PBS/0.5% BSA/0.05% sodium azide). Bound molecules were detected with PE-conjugated anti-human secondary antibody (Sigma-Aldrich, #P8047).

EGF1+2 = molecular target: T3, EGF1+2; assay: flow cytometry on HEK293 cells expressing the DLL3 subdomain construct, PE anti-human secondary, control: secondary antibody only
T3 construct: also called Hu DLL3 EGF1+2 on HEK293 cells
T3 membrane-anchored DLL3 subdomain construct: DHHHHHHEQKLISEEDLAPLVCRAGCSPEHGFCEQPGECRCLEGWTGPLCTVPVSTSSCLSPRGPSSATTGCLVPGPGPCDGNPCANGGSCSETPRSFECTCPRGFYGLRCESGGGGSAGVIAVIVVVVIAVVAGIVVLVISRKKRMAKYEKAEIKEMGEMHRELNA
Method: (§2) DLL3/CD3 binding proteins were produced by transient transfection of CHO-E cells with the pTT5 vectors carrying the chain-encoding genes, as described in Example 2. […] Bound molecules were detected with PE-conjugated anti-human secondary antibody (Sigma-Aldrich, #P8047). As negative control, cells were incubated with secondary antibody only.
(§3) The samples were measured by flow-cytometry. […] The sequences of the epitope domains are listed in Example 5, Table 3.

EGF5+6 = molecular target: T4, EGF5+6; assay: as above
T4 construct: also called Hu DLL3 EGF5+6 on HEK293 cells
T4 membrane-anchored DLL3 subdomain construct: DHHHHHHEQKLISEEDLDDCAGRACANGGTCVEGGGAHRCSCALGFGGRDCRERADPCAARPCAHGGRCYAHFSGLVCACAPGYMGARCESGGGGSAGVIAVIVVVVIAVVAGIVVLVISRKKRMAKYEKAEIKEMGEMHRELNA
Method: as §2, §3

EGF3+4 = molecular target: T5, EGF3+4; assay: as above
T5 construct: also called Hu DLL3 EGF3+4 on HEK293 cells
T5 membrane-anchored DLL3 subdomain construct: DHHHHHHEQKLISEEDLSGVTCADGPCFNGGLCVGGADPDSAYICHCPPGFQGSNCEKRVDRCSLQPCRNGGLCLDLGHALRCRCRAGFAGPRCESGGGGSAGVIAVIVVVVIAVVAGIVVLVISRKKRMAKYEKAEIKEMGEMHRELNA
Method: as §2, §3

EGF4+5 = molecular target: T6, EGF4+5; assay: as above
T6 construct: also called Hu DLL3 EGF4+5 on HEK293 cells
T6 membrane-anchored DLL3 subdomain construct: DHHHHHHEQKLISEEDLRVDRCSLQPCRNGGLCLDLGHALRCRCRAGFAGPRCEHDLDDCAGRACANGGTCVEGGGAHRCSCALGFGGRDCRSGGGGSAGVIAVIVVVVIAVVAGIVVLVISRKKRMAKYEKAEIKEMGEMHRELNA
Method: as §2, §3

[3] = molecular target: T7, EGF6+MEMBRANE PROXIMAL PEPTIDE; assay: as above
T7 construct: also called Hu DLL3 EGF6+membrane proximal peptide on HEK293 cells
T7 membrane-anchored DLL3 subdomain construct: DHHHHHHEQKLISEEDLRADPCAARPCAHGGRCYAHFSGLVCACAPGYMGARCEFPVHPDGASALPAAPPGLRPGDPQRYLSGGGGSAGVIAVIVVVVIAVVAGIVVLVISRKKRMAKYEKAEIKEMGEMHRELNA
Method: as §2, §3

EGF2+3 = molecular target: T8, EGF2+3; assay: as above
T8 construct: also called Hu DLL3 EGF2+3 on HEK293 cells
T8 membrane-anchored DLL3 subdomain construct: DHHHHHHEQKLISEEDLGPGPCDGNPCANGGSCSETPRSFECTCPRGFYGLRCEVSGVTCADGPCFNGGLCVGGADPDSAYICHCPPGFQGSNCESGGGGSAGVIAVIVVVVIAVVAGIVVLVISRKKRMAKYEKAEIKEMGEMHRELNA
Method: as §2, §3

[4] = molecular target: T1, human DLL3 (endogenous, on SCLC cell …); assay: flow cytometry titration on NCI-H82 cells, PE anti-human secondary, x-fold over background
From the text: as §1

B1: anti-DLL3 antibody DLL3#4 (antibody, V domains shown)
VH: QVQLQQSGTELVKPGASVKLSCKASVYTFTSYFMYWVKQRPGHGLEWIGEISPTNGNSNLNERFKNKATLTVDKSSSTAYMQLSSLTSEDSAVYYCTRGGDGYLDYWGQGTTLTVSS
VL: DIVLTQSPASLAVSLGQRATISCRASKSVSSFGYSFMHWYQQKPGQPPKLLIYLASNLESGVPARFSGSGSGTDFTLNIHPVEEEDAATYYCQHSRELPWTFGGGTKLEIK
notes: detected with anti-mouse secondary antibody
EC50 (read off the curve) [1]: ~0.1 nM
EC50 (read off the curve) (Human DLL3-His): ~20 ng/mL

B2: anti-DLL3 antibody DLL3#1 (antibody, V domains shown)
VH: QVQLVQSGAEVKKPGASVKVSCKASGNTFTNYYMHWVRQAPGPGLEWMGIIDPSVGSKSYAQKFLGRVTIARDTSTSTVFLDLYSLRSEDTAVYFCARAGKRFGESYFDYWGQGTLVTVSS
VL: EIVLTQSPGTLSLSPGERATLSCRASQSVSSNFLVWYQQKPGQAPRPLIYGASTRASGIPDRFSGSGSGADFTLTISRLEPEDFALYYCQQYGDSPYTFGQGTTLEIK
notes: it was detected with anti-mouse reagents
binding result [1]: binds

B3: anti-DLL3 antibody DLL3#5 (antibody, V domains shown)
VH: QVQLVQSGAEVKKPGASVKVSCKASGFTFTGYYIHWVRQAPGQGLEWMGWINPNSGGTNYAQKFQGRVTMTRDSSINTAFMELSRLTSDDTAVYYCAAGWDYWGQGTLVTVSS
VL: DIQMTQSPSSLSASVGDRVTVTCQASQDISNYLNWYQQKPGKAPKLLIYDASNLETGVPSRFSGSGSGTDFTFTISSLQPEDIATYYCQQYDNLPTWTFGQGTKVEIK
notes: detected with anti-mouse reagents
EC50 (read off the curve) [1]: ~0.5 nM
EC50 (read off the curve) (Human DLL3-His): ~10 ng/mL

B4: anti-DLL3 antibody DLL3#6 (antibody, V domains shown)
VH: QVQLQESGPGLVKPSETLSLTCTVSGGSISSYFWSWIRQPAGKGLEWIGRIYTSGSTNYNPSLNSRLTMSVDTSKNQFSLKLSSVTAADTAVYYCARRGDWGGFDIWGQGTVVTVSS
VL: DIQLTQSPSFLSTSVGDRVTITCRASQDISNYFAWYQQKPGKAPKLLIYAASTLQSGVPSRFSGGGSGTEFTLTISSLQPEDFATYYCQQLNSYPYTFGQGTKLEIK
notes: as for B1
EC50 (read off the curve) [1]: ~0.4 nM

B5: DLL3#15/CD3#1 (bispecific antibody, human IgG1, kappa, lambda, L234A L235A)
chain 1: not shown
chain 2: EAVVTQEPSLTVSPGGTVTLTCRSSTGAVTTSNYANWVQEKPGQLPRGLIGGTNKRAPWVPARFSGSLLGGKAALTLSGAQPEDEAEYFCALWYSNLWVFGGGTKLTVLGQPKAAPSVTLFPPSSEELQANKATLVCLISDFYPGAVKVAWKADGSPVNTGVETTTPSKQSNNKYAASSYLSLTPEQWKSHRSYSCQVTHEGSTVEKTVAPAECSGGGGSEGKSSGSGSESKSTEGKSSGSGSESKSTGGGGSEVQLVESGGGLVQPGGSLKLSCAASGFTFNTYAMNWVRQAPGKGLEWVARIRSKYNNYATYYADSVKDRFTISRDDSKNTAYLQMNNLKTEDTAVYYCVRHGNFGNSYVSWFAYWGQGTLVTVSAASTKGPSVFPLAPSSKSTSGGTAALGCLVKDYFPEPVTVSWNSGALTSGVHTFPAVLQSSGLYSLSSVVTVPSSSLGTQTYICNVNHKPSNTKVDKRVEPKSCDKTHTCPPCPAPEAAGGPSVFLFPPKPKDTLMISRTPEVTCVVVDVSHEDPEVKFNWYVDGVEVHNAKTKPREEQYNSTYRVVSVLTVLHQDWLNGKEYKCKVSNKALPAPIEKTISKAKGQPREPQVYTLPPSREEMTKNQVSLSCAVKGFYPSDIAVEWESNGQPENNYKTTPPVLDSDGSFFLVSKLTVDKSRWQQGNVFSCSVMHEALHNRFTQKSLSLSPG
notes: Heterodimer of one DLL3 chain and one CD3 chain (scFab-Fc, knob-in-hole); SPR not given
EC50 (read off the curve) [2]: ~2 nM
binding result (EGF1+2): no binding (tested: 1.6 nM)
binding result (EGF5+6): no binding (tested: 1.6 nM)
binding result (EGF3+4): no binding (tested: 1.6 nM)
binding result (EGF4+5): no binding (tested: 1.6 nM)
binding result [3]: no binding (tested: 1.6 nM)
binding result (EGF2+3): no binding (tested: 1.6 nM)
EC50 (read off the curve) [4]: ~1 nM

B6: anti-DLL3 antibody DLL3#3 (antibody, V domains shown)
VH: QVQLVQSGAEVKKPGASVKVSCKASGYTFTSYYVHWVRQAPGQGLEWMVIINPGGGTTSYAQKFLGRVTMTRDTSTNTVYMELKSLRSEDTAVYYCARGEAVTGNYFYYGMDVWGQGTTVTVSS
VL: DIQMTQSPSAMSASVGDRVTITCRASQGISNYLVWFQQKPGKAPKRLIYAVSSLYSGVPSRFSGSGSGTEFTLTISSLQPEDFATYYCLQHDSYPYTFGQGTKLEIK
notes: as for B1
EC50 (read off the curve) (Human DLL3-His): ~10 ng/mL

B7: anti-DLL3 antibody DLL3#2 (antibody, V domains shown)
VH: QVQLVQSGAEVKKPGASVKVSCKASGYTFTSYYMHWVRQAPGQGLEWMGIINPSGGSTSYAQKFQGRVTMTRDTSTSTVYMELSSLRSEDTAVYYCARGEAVGGNYYYYGMDVWGQGTTVTVSS
VL: DIQMTQSPSAMSASVGDRVTITCRASQGISNYLAWFQQKPGKVPEPLIYAASSLQSGVPSRFSGSGSVTEFTLTISSLQPEDFATYYCLQHNSSPYTFGQGTKLEIK
notes: as for B1
binding result [1]: binds
